± gives the standard deviation of the averaged measurements.
Test: total protein half-life in vivo (active degradation + dilution); higher = more stable protein
[1] = E. coli NCM3722 delta-clpP delta-lon delta-hslV, growth: N-lim chemostat, doubling time 6 h
[2] = E. coli NCM3722 delta-clpP, growth: N-lim chemostat, doubling time 6 h
[3] = E. coli NCM3722 delta-hslV, growth: N-lim chemostat, doubling time 6 h
[4] = E. coli NCM3722 delta-lon, growth: N-lim chemostat, doubling time 6 h
[5] = E. coli NCM3722 delta-smpB, growth: N-lim chemostat, doubling time 6 h
[6] = wild type E. coli NCM3722, growth: C-lim chemostat, doubling time 3 h
[7] = wild type E. coli NCM3722, growth: C-lim chemostat, doubling time 6 h
[8] = wild type E. coli NCM3722, growth: C-lim chemostat, doubling time 12 h
[9] = wild type E. coli NCM3722, growth: N-lim chemostat, doubling time 6 h
[10] = wild type E. coli NCM3722, growth: N-lim chemostat, doubling time 12 h
[11] = wild type E. coli NCM3722, growth: P-lim chemostat, doubling time 6 h
[12] = wild type E. coli NCM3722, growth: P-lim chemostat, doubling time 12 h

Row | Sequence | total protein half-life in vivo [1] [h] | total protein half-life in vivo [2] [h] | total protein half-life in vivo [3] [h] | total protein half-life in vivo [4] [h] | total protein half-life in vivo [5] [h] | total protein half-life in vivo [6] [h] | total protein half-life in vivo [7] [h] | total protein half-life in vivo [8] [h] | total protein half-life in vivo [9] [h] | total protein half-life in vivo [10] [h] | total protein half-life in vivo [11] [h] | total protein half-life in vivo [12] [h]
1 | MGNNVVVLGTQWGDEGKGKIVDLLTERAKYVVRYQGGHNAGHTLVINGEKTVLHLIPSGILRENVTSIIGNGVVLSPAALMKEMKELEDRGIPVRERLLLSEACPLILDYHVALDNAREKARGAKAIGTTGRGIGPAYEDKVARRGLRVGDLFDKETFAEKLKEVMEYHNFQLVNYYKAEAVDYQKVLDDTMAVADILTSMVVDVSDLLDQARQRGDFVMFEGAQGTLLDIDHGTYPYVTSSNTTAGGVATGSGLGPRYVDYVLGILKAYSTRVGAGPFPTELFDETGEFLCKQGNEFGATTGRRRRTGWLDTVAVRRAVQLNSLSGFCLTKLDVLDGLKEVKLCVAYRMPDGREVTTTPLAADDWKGVEPIYETMPGWSESTFGVKDRSGLPQAALNYIKRIEELTGVPIDIISTGPDRTETMILRDPFDA [P0A7D4] | 4.49 ± 0.41 | 4.35 ± 0.28 | 4.567 ± 0.026 | 4.73 ± 0.3 | 4.3 ± 0.15 | 3.04 ± 0.093 | 5.86 ± 0.3 | 10.4 ± 1.6 | 4.39 ± 0.098 | 7.26 ± 0.18 | 6.09 ± 0.23 | 10.6 ± 0.72
2 | MDQKLLTDFRSELLDSRFGAKAISTIAESKRFPLHEMRDDVAFQIINDELYLDGNARQNLATFCQTWDDENVHKLMDLSINKNWIDKEEYPQSAAIDLRCVNMVADLWHAPAPKNGQAVGTNTIGSSEACMLGGMAMKWRWRKRMEAAGKPTDKPNLVCGPVQICWHKFARYWDVELREIPMRPGQLFMDPKRMIEACDENTIGVVPTFGVTYTGNYEFPQPLHDALDKFQADTGIDIDMHIDAASGGFLAPFVAPDIVWDFRLPRVKSISASGHKFGLAPLGCGWVIWRDEEALPQELVFNVDYLGGQIGTFAINFSRPAGQVIAQYYEFLRLGREGYTKVQNASYQVAAYLADEIAKLGPYEFICTGRPDEGIPAVCFKLKDGEDPGYTLYDLSERLRLRGWQVPAFTLGGEATDIVVMRIMCRRGFEMDFAELLLEDYKASLKYLSDHPKLQGIAQQNSFKHT | 5.86 ± 0.071 |  |  | 5.71 ± 0.19 | 5.91 ± 0.41 | 3.71 | 6.55 ± 0.6 | > 16 | 5.53 | 9.35 ± 0.68 | 6.024 ± 0.042 | 12.1 ± 1.2
3 | MKGRLLDAVPLSSLTGVGAALSNKLAKINLHTVQDLLLHLPLRYEDRTHLYPIGELLPGVYATVEGEVLNCNISFGGRRMMTCQISDGSGILTMRFFNFSAAMKNSLAAGRRVLAYGEAKRGKYGAEMIHPEYRVQGDLSTPELQETLTPVYPTTEGVKQATLRKLTDQALDLLDTCAIEELLPPELSQGMMTLPEALRTLHRPPPTLQLSDLETGQHPAQRRLILEELLAHNLSMLALRAGAQRFHAQPLSANDTLKNKLLAALPFKPTGAQARVVAEIERDMALDVPMMRLVQGDVGSGKTLVAALAALRAIAHGKQVALMAPTELLAEQHANNFRNWFAPLGIEVGWLAGKQKGKARLAQQEAIASGQVQMIVGTHAIFQEQVQFNGLALVIIDEQHRFGVHQRLALWEKGQQQGFHPHQLIMTATPIPRTLAMTAYADLDTSVIDELPPGRTPVTTVAIPDTRRTDIIDRVHHACITEGRQAYWVCTLIEESELLEAQAAEATWEELKLALPELNVGLVHGRMKPAEKQAVMASFKQGELHLLVATTVIEVGVDVPNASLMIIENPERLGLAQLHQLRGRVGRGAVASHCVLLYKTPLSKTAQIRLQVLRDSNDGFVIAQKDLEIRGPGELLGTRQTGNAEFKVADLLRDQAMIPEVQRLARHIHERYPQQAKALIERWMPETERYSNA | 5.83 ± 0.22 | 5.05 ± 0.14 | 5.74 ± 0.61 | 5.32 ± 0.16 | 5.01 ± 0.36 |  | 6.17 ± 0.47 | 10.5 ± 0.46 | 4.91 ± 0.11 | 8.73 ± 0.86 | 6.25 ± 0.072 | 11.3 ± 0.53
4 | MGNSDRKPGLIKRLWKWWRTPSRLALGTLLLIGFVGGIVFWGGFNTGMEKANTEEFCISCHEMRNTVYQEYMDSVHYNNRSGVRATCPDCHVPHEFVPKMIRKLKASKELYGKIFGVIDTPQKFEAHRLTMAQNEWRRMKDNNSQECRNCHNFEYMDTTAQKSVAAKMHDQAVKDGQTCIDCHKGIAHKLPDMREVEPGF [P0ABL5] |  | 4.79 |  |  | 5.22 ± 1.8 |  | 3.97 | 9.62 |  |  |  | 8.81
5 | MSRFVPRIIPFYLLLLVAGGTANAQSTFEQKAANPFDNNNDGLPDLGMAPENHDGEKHFAEIVKDFGETSMNDNGLDTGEQAKAFALGKVRDALSQQVNQHVESWLSPWGNASVDVKVDNEGHFTGSRGSWFVPLQDNDRYLTWSQLGLTQQDNGLVSNVGVGQRWARGNWLVGYNTFYDNLLDENLQRAGFGAEAWGEYLRLSANFYQPFAAWHEQTATQEQRMARGYDLTARMRMPFYQHLNTSVSLEQYFGDRVDLFNSGTGYHNPVALSLGLNYTPVPLVTVTAQHKQGESGENQNNLGLNLNYRFGVPLKKQLSAGEVAESQSLRGSRYDNPQRNNLPTLEYRQRKTLTVFLATPPWDLKPGETVPLKLQIRSRYGIRQLIWQGDTQILSLTPGAQANSAEGWTLIMPDWQNGEGASNHWRLSVVVEDNQGQRVSSNEITLTLVEPFDALSNDELRWEP |  | 6.12 | 5.24 ± 1.5 | 5.79 ± 1.8 | 5.36 ± 0.54 |  |  |  | 6.73 ± 1 | 14.3 ± 1.6 |  | 
6 | MLKRCLSPLTLVNQVALIVLLSTAIGLAGMAVSGWLVQGVQGSAHAINKAGSLRMQSYRLLAAVPLSEKDKPLIKEMEQTAFSAELTRAAERDGQLAQLQGLQDYWRNELIPALMRAQNRETVSADVSQFVAGLDQLVSGFDRTTEMRIETVVLVHRVMAVFMALLLVFTIIWLRARLLQPWRQLLAMASAVSHRDFTQRANISGRNEMAMLGTALNNMSAELAESYAVLEQRVQEKTAGLEHKNQILSFLWQANRRLHSRAPLCERLSPVLNGLQNLTLLRDIELRVYDTDDEENHQEFTCQPDMTCDDKGCQLCPRGVLPVGDRGTTLKWRLADSHTQYGILLATLPQGRHLSHDQQQLVDTLVEQLTATLALDRHQERQQQLIVMEERATIARELHDSIAQSLSCMKMQVSCLQMQGDALPESSRELLSQIRNELNASWAQLRELLTTFRLQLTEPGLRPALEASCEEYSAKFGFPVKLDYQLPPRLVPSHQAIHLLQIAREALSNALKHSQASEVVVTVAQNDNQVKLTVQDNGCGVPENAIRSNHYGMIIMRDRAQSLRGDCRVRRRESGGTEVVVTFIPEKTFTDVQGDTHE [P0AFA2] | 6.01 ± 0.078 | 6.25 ± 0.066 |  | 5.32 ± 0.25 | 5.44 ± 0.34 | 3.11 ± 0.058 | 5.44 ± 0.39 | 10.9 ± 0.31 | 5.65 ± 0.069 | 11.1 ± 0.78 | 6.05 ± 0.12 | 11 ± 1.5
7 | MQYPINEMFQTLQGEGYFTGVPAIFIRLQGCPVGCAWCDTKHTWEKLEDREVSLFSILAKTKESDKWGAASSEDLLAVIGRQGYTARHVVITGGEPCIHDLLPLTDLLEKNGFSCQIETSGTHEVRCTPNTWVTVSPKLNMRGGYEVLSQALERANEIKHPVGRVRDIEALDELLATLTDDKPRVIALQPISQKDDATRLCIETCIARNWRLSMQTHKYLNIA | 4.61 ± 0.46 | 3.94 | 3.81 ± 0.46 | 4.5 ± 0.086 | 3.79 ± 0.57 | 2.309 ± 0.014 | 4.33 ± 0.17 | 6.66 ± 0.86 | 3.7 ± 0.29 | 6.06 ± 0.13 | 4.61 ± 0.56 | 7.47 ± 0.8

From the supplement of paper PMC11246515
